Numbering of substitutions follows the chain as printed. Names and notes keep the numbering of the source.
B1: HPV16 E2 D124A mutant (natural protein)
chain: METLCQRLNVCQDKILTHYENDSTDLRDHIDYWKHMRLECAIYYKAREMGFKHINHQVVPTLAVSKNKALQAIELQLTLETIYNSQYSNEKWTLQDVSLEVYLTAPTGCIKKHGYTVEVQFDGAICNTMHYTNWTHIYICEEASVTVVEGQVDYYGLYYVHEGIRTYFVQFKDDAEKYSKNKVWEVHAGGQVILCPTSVFSSNEVSSPEIIRQHLANHPAATHTKAVALGTEETQTTIQRPRSEPDTGNPCHTTKLLHRDSVDSAPILTAFNSSHKGRINCNSNTTPIVHLKGDANTLKCLRYRFKKHCTLYTAVSSTWHWTGHNVKHKSAIVTLTYDSEWQRDQFLSQVKIPKTITVSTGFMSI
notes: E2 protein of human papillomavirus 16, from pCMV-16E2 by site-directed mutagenesis; source: C33a cells, transfected (mutated pCMV-16E2), in lysate
B2: HPV16 E2 H130R mutant (natural protein)
chain: B1 chain with A124D, H130R
notes: as for B1
B3: HPV16 E2 D173A mutant (natural protein)
chain: B1 chain with A124D, D173A
notes: as for B1
B4: HPV16 E2 E118A mutant (natural protein)
chain: B1 chain with E118A, A124D
notes: as for B1
B5: HPV16 E2 K177A mutant (natural protein)
chain: B1 chain with A124D, K177A
notes: as for B1
B6: HPV16 E2 Y131A mutant (natural protein)
chain: B1 chain with A124D, Y131A
notes: as for B1

Target: T1, His-ChlR1 63-214 (human, UniProt Q96FC9 63-214)
T1 construct: DNA helicase ChlR1, human, amino acids 63 to 214, cloned from pCMV-FLAG-ChlR1 into pHIS-TEV; Vector pHIS-TEV (NcoI/EcoRI); held on nickel resin by the hexahistidine tag in the pull-down; also called ChlR1 63-214 peptide
T1 sequence (looked up): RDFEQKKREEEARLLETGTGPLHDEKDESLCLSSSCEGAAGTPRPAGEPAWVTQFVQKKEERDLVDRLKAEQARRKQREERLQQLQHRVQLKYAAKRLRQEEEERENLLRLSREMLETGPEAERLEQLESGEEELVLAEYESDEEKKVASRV
Assay: pull-down; His-ChlR1 1-130 or His-ChlR1 63-214 immobilised on nickel resin, incubated with cleared whole-cell lysate of E2-transfected C33a cells for 16 h at 4°C; bound E2 by Western blotting, densitometry against input
Details: one partner purified

Binder | % E2 bound (in comparison to the E2^WT binding level)
B1 | 38.8%
B2 | 45.2%
B3 | 80.5%
B4 | 107%
B5 | 36.3%
B6 | 5.43%

Source: PMC5165203, “The Cellular DNA Helicase ChlR1 Regulates Chromatin and Nuclear Matrix Attachment of the Human Papillomavirus 16 E2 Protein and High-Copy-Number Viral Genome Establishment” (Journal of Virology, 2016)
